Sequences and labels used below:
B4: β7-subunit (natural protein, S. cerevisiae, UniProt P30657 34-266, looked up)
chain: TQQPIVTGTSVISMKYDNGVIIAADNLGSYGSLLRFNGVERLIPVGDNTVVGISGDISDMQHIERLLKDLVTENAYDNPLADAEEALEPSYIFEYLATVMYQRRSKMNPLWNAIIVAGVQSNGDQFLRYVNLLGVTYSSPTLATGFGAHMANPLLRKVVDRESDIPKTTVQVAEEAIVNAMRVLYYRDARSSRNFSLAIIDKNTGLTFKKNLQVENMKWDFAKDIKGYGTQKI
notes: 20S proteasome subunit β7, S. cerevisiae, without its 33-residue propeptide (β7pro); the last 10 residues of the C-terminal extension are not resolved there

Assay [1] deals with B4. In words: cryo-EM structure; uncapped, fully matured 20S pre1-1CP isolated via FLAG-6xHis on β4; 2.0 Å with C2 symmetry. Conditions: both partners purified.
Assay [2] addresses B4. In words: cryo-EM structure; late-PC (doubly capped with Pba1-Pba2) isolated via FLAG-6xHis on β4 from pre1-1 cells; 2.1 Å with C2 symmetry, 2.3 Å without; sub-populations late-PC1 (2.7 Å) and late-PC2 (2.3 Å). Conditions: both partners purified.
Assay [3] deals with T1, β4-S142F (pre1-1) with FLAG-6xHis-tag (S. cerevisiae, UniProt P22141 1-198, S142F).
T1 construct: Pre1/β4, S. cerevisiae, mutant version of the pre1-1 strain; also called pre1-1-FH; Pre1/β4 (β4-S142F)
T1 sequence: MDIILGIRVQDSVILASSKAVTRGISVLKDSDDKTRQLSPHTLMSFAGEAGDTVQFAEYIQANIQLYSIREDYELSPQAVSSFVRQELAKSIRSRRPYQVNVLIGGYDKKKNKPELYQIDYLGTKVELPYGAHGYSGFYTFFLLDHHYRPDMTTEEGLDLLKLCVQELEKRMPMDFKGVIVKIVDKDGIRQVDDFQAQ
In words: affinity purification with mass spectrometry; tandem affinity purification (FLAG, 6xHis on β4) from pre1-1 cells overexpressing Pba1-Pba2, separation by native PAGE, bands evaluated by MS. The following applies: partners not purified.

Assay [4] deals with T2, β5 precursor (β5-subunit with unprocessed β5-propeptide) (S. cerevisiae, UniProt P30656 1-287).
T2 construct: β5/Pre2, S. cerevisiae, unprocessed precursor with the whole 75-residue propeptide (all but -65, -64 and -13 resolved); numbers count on: the mature subunit (Thr1 = +1, propeptide residues negative); also called Pre2; precursor form of the β5-subunit
T2 sequence (looked up): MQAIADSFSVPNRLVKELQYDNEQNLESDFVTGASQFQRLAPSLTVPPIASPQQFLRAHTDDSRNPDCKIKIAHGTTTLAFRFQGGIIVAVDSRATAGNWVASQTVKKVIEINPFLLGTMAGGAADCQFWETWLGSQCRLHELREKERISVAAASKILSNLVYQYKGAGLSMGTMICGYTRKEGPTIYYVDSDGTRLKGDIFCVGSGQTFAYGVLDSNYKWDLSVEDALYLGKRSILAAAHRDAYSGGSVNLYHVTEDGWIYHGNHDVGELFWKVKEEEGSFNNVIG
In words: cryo-EM structure; late-PC (doubly capped with Pba1-Pba2) isolated via FLAG-6xHis on β4 from pre1-1 cells; 2.1 Å with C2 symmetry, 2.3 Å without; sub-populations late-PC1 (2.7 Å) and late-PC2 (2.3 Å). Conditions: both partners purified.

The next assay concerns the target T3, Blm10 (S. cerevisiae, UniProt P43583 1-2143).
T3 construct: also called Blm10 chaperone
As to the kind of experiment: cryo-EM structure; native pre1-1CP-Blm10 complex copurified via FLAG-6xHis on β4; 2.4 Å, no symmetry applied. Conditions: both partners purified.

T3 sequence (P43583 whole entry): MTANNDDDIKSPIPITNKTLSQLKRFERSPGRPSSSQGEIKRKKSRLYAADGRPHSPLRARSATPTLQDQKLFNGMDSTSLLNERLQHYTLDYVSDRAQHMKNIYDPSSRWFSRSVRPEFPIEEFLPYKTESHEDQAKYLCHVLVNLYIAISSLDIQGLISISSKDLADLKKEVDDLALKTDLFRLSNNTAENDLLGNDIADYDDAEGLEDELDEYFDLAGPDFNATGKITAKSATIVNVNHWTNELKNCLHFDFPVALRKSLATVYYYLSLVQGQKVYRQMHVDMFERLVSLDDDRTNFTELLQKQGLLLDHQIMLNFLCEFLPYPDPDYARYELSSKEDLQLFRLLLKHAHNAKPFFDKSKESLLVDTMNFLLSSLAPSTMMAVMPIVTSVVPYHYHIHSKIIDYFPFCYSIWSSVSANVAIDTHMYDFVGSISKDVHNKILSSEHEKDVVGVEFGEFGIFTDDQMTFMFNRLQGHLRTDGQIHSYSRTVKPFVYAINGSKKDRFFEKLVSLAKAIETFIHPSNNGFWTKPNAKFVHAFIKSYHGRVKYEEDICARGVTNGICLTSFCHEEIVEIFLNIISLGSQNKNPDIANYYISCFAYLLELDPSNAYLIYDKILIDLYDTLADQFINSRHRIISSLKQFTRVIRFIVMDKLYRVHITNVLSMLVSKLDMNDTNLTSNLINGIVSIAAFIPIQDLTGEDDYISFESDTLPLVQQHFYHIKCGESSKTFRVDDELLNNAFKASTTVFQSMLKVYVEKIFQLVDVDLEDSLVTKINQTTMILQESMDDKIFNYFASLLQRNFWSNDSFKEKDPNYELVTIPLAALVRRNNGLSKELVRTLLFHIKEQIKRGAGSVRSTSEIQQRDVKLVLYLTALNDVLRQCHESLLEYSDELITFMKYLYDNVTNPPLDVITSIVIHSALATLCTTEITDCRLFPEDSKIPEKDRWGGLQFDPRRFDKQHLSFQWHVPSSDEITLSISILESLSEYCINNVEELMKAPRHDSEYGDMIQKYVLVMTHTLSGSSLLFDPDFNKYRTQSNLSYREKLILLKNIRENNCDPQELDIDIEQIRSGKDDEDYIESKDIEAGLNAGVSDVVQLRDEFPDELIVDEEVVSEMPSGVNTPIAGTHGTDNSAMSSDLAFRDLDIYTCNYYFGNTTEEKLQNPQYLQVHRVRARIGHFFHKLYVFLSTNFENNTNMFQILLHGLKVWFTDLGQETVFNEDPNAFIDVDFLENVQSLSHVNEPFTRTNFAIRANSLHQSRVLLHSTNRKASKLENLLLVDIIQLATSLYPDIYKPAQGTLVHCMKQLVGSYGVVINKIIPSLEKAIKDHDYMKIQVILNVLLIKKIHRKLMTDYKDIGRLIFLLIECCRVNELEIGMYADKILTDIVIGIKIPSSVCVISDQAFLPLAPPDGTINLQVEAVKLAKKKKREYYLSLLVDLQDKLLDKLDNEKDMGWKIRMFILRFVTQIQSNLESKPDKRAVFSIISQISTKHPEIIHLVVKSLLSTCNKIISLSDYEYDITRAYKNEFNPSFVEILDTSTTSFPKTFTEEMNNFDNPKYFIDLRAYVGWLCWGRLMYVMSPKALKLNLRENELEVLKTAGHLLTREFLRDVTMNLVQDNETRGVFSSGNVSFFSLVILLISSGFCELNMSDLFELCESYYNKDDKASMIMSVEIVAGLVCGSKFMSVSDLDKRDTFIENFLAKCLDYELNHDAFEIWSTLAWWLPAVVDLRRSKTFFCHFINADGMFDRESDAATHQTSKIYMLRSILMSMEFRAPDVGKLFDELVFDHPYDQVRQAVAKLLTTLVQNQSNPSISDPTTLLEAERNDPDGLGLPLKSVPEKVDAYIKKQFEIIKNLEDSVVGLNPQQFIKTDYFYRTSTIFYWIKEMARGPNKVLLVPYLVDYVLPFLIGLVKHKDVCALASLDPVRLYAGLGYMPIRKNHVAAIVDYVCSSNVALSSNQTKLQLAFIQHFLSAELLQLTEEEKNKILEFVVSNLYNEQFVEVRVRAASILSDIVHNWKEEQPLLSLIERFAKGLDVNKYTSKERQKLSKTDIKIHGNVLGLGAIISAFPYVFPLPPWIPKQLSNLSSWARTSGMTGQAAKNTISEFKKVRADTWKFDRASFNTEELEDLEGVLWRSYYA

B1: β1-subunit, autocatalytically cleaved (mature, in pre1-1CP) (natural protein, S. cerevisiae, UniProt P38624 20-215, looked up)
chain: TSIMAVTFKDGVILGADSRTTTGAYIANRVTDKLTRVHDKIWCCRSGSAADTQAIADIVQYHLELYTSQYGTPSTETAASVFKELCYENKDNLTAGIIVAGYDDKNKGEVYTIPLGGSVHKLPYAIAGSGSTFIYGYCDKNFRENMSKEETVDFIKHSLSQAIKWDGSSGGVIRMVVLTAAGVERLIFYPDEYEQL
notes: β1/Pre3, S. cerevisiae, mature subunit beginning at Thr1; numbers count on: the mature subunit; also called Pre3
Consider B1, for which, in the assay with β7-subunit [1], the binding result is “binds”.

B2: Ump1 (natural protein, S. cerevisiae, UniProt P38293 1-148, looked up)
chain: MNIVPQDTFKSQVSTDQDKSVLSSAVPSLPDTLRQQEGGAVPLSTQLNDRHPLESTLKNWETTQRQRQMEQYRQIFGIAEPMKRTMEMEIVNRTDFNPLSTNGSIHRDILLNKECSIDWEDVYPGTGLQASTMVGDDVHSKIEKQLGI
notes: residues 126-131 not resolved; two Ump1 molecules are encased in one late-PC, one in each half; also called ScUmp1; Ump1 chaperone
Consider B2, for which the binding result (with β7-subunit [2]; in assay [3]) was “binds” in each case.

B3: β2-subunit, autocatalytically processed (natural protein, S. cerevisiae, UniProt P25043 30-261, looked up)
chain: TTIVGVKFNNGVVIAADTRSTQGPIVADKNCAKLHRISPKIWCAGAGTAADTEAVTQLIGSNIELHSLYTSREPRVVSALQMLKQHLFKYQGHIGAYLIVAGVDPTGSHLFSIHAHGSTDVGYYLSLGSGSLAAMAVLESHWKQDLTKEEAIKLASDAIQAGIWNDLGSGSNVDVCVMEIGKDAEYLRNYLTPNVREEKQKSYKFPRGTTAVLKESIVNICDIQEEQVDITA
notes: β2/Pup1, S. cerevisiae, mature subunit beginning at the active site Thr1 after cleavage of the Gly-1/Thr1 bond (29-residue propeptide removed); numbers count on: the mature subunit; also called Pup1; mature β2
In the case of B3, the binding result with β7-subunit [1] is “binds”.

As to B4, the binding result in assay [4] is recorded as “binds”.

B5: α5-subunit (natural protein, S. cerevisiae, UniProt P32379 1-260, looked up)
chain: MFLTRSEYDRGVSTFSPEGRLFQVEYSLEAIKLGSTAIGIATKEGVVLGVEKRATSPLLESDSIEKIVEIDRHIGCAMSGLTADARSMIEHARTAAVTHNLYYDEDINVESLTQSVCDLALRFGEGASGEERLMSRPFGVALLIAGHDADDGYQLFHAEPSGTFYRYNAKAIGSGSEGAQAELLNEWHSSLTLKEAELLVLKILKQVMEEKLDENNAQLSCITKQDGFKIYDNEKTAELIKELKEKEAAESPEEADVEMS
notes: 20S proteasome subunit α5, S. cerevisiae
B5: the binding result with Blm10 is “binds”.

B6: β6-subunit (natural protein, S. cerevisiae, UniProt P23724 20-241, looked up)
chain: QFNPYGDNGGTILGIAGEDFAVLAGDTRNITDYSINSRYEPKVFDCGDNIVMSANGFAADGDALVKRFKNSVKWYHFDHNDKKLSINSAARNIQHLLYGKRFFPYYVHTIIAGLDEDGKGAVYSFDPVGSYEREQCRAGGAAASLIMPFLDNQVNFKNQYEPGTNGKVKKPLKYLSVEEVIKLVRDSFTSATERHIQVGDGLEILIVTKDGVRKEFYELKRD
notes: 20S proteasome subunit β6, S. cerevisiae, without its 19-residue propeptide (β6pro)
B6: the binding result with β7-subunit [1] is on record as “binds”.

B7: α6-subunit (natural protein, S. cerevisiae, UniProt P40302 1-234, looked up)
chain: MFRNNYDGDTVTFSPTGRLFQVEYALEAIKQGSVTVGLRSNTHAVLVALKRNADELSSYQKKIIKCDEHMGLSLAGLAPDARVLSNYLRQQCNYSSLVFNRKLAVERAGHLLCDKAQKNTQSYGGRPYGVGLLIIGYDKSGAHLLEFQPSGNVTELYGTAIGARSQGAKTYLERTLDTFIKIDGNPDELIKAGVEAISQSLRDESLTVDNLSIAIVGKDTPFTIYDGEAVAKYI
notes: 20S proteasome subunit α6, S. cerevisiae
For B7, in the assay with Blm10, the binding result was “binds”.

These data come from publication PMC11391049 (Life Science Alliance, 2024).
